Source: paper PMC4571279 (Nature Communications, 2015)

B1: Fab m336 (antigen-binding fragment of antibody m336, prepared by Lys-C digestion) (Fab, V domains shown)
VH: QVQLVQSGAEVKKPGSSVKVSCKASGGTFSSYAISWVRQAPGQGLEWMGGIIPIFGTASYAQKFQGRVTITADKSTSTAYMELSSLRSEDTAVYYCARVGYCSSTSCNRGAFDIWGQGTMVTVSS
VL: DIQLTQSPSSLSASVGDRVTITCRASQGIRNDLGWYQQKPGKAPKLLIYAASSLQSGVPSRFSGSGSGTDFTLTISSLQPEDFATYYCQQLNSYPLTFGGGTKVEIK
notes: also called m336 Fab
B2: IgG1 m336 (antibody, V domains shown)
VH: B1 VH
VL: B1 VL
notes: IgG1; also called wild-type m336; copies: 2 + 2
B3: Fab m336 (from the m336 Fab-expressing plasmid), wild type (Fab, V domains shown)
VH: B1 VH
VL: B1 VL
notes: also called wild-type m336

Columns and labels:
[1] = target: T1, MERS-CoV Eng1 receptor-binding domain (RBD) (MERS-CoV Eng1, UniProt K9N5Q8); assay: crystal structure; settings: both partners purified
T1 construct: source: GnTi-/- cells, purified (Ni-NTA, size exclusion chromatography in 1x PBS)
T1 sequence (K9N5Q8 367-601): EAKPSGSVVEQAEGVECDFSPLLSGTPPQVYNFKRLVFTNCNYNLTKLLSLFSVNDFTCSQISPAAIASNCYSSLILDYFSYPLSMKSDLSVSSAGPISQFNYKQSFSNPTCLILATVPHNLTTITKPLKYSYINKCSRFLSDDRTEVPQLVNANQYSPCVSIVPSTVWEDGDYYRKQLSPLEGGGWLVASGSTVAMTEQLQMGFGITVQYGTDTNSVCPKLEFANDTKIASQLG

[2] = target: T2, recombinant MERS-CoV S1 protein (MERS-CoV, isolate EMC/2012 (strain of …, UniProt K0BRG7)); assay: ELISA; settings: both partners purified
T2 construct: source: bought: Sino Biological Inc

Row | Binder | binding result [1] | binding result [2]
1 | B1 | binds | –
2 | B2 | – | binds
3 | B3 | – | binds
